The target in this assay is DENND10 (recombinant, pull-down) (human, UniProt Q8TCE6 1-357). Briefly: pull-down.
DENND10 (recombinant, pull-down), sequence (Q8TCE6 whole entry): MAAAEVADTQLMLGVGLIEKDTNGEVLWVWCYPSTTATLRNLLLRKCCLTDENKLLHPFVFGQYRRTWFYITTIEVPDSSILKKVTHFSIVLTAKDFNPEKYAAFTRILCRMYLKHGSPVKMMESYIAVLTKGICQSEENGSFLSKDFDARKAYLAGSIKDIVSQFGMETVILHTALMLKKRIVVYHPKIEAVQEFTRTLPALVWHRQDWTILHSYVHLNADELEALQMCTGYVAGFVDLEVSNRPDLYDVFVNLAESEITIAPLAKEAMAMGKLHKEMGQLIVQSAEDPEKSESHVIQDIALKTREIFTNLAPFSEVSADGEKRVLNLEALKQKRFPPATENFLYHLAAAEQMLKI

B1: MBP-tagged CCDC22-CCDC93 DBD (complex, human)
chain 1: GAGAKTGAPKGSRFTHSEKFTFHLEPQAQATQVSDVPATSRRPEQVTWAAQEQELESLREQLEGVNRSIEEVEADMKTLGVSFVQAESECRHSKLSTAEREQALRLKSRAVELLPDGTANLAKLQLVVENSAQRVIHLAGQWEKHRVPLLAEYRHLRKLQDCRELES
chain 2: SPEKLGTSQLHRRKVISLNKQIAQKTKHLEELRASHTSLQARYNEAKKTLTELKTYSEKLDKEQAALEKIESKADPSILQNLRALVAMNENLKSQEQEFKAHCREEMTRLQQEIENLKAERAPRGDEKT
On to B1, for which the binding result was “binds”.

B2: MBP-tagged CCDC22-CCDC93 DBD, CCDC93 E410R (complex, human)
chain 1: GAGAKTGAPKGSRFTHSEKFTFHLEPQAQATQVSDVPATSRRPEQVTWAAQEQELESLREQLEGVNRSIEEVEADMKTLGVSFVQAESECRHSKLSTAEREQALRLKSRAVELLPDGTANLAKLQLVVENSAQRVIHLAGQWEKHRVPLLAEYRHLRKLQDCRELES
chain 2: SPEKLGTSQLHRRKVISLNKQIAQKTKHLEELRASHTSLQARYNEAKKTLTELKTYSEKLDKEQAALEKIESKADPSILQNLRALVAMNENLKSQEQEFKAHCRERMTRLQQEIENLKAERAPRGDEKT
Regarding B2, the binding result was “binds”.

The values above are taken from paper PMC11260360 (Nature structural & molecular biology, 2023).
